One substance from patent publication US6068841 can be followed below.

This test deals with mouse Fas on mouse hepatic parenchymal cells (mouse) (UniProt P25446).

With “anti-mouse Fas antibody (Jo-2; product of Phar-Mingen Co.)”, the Viability (%) of mouse hepatic parenchymal cells (ALAMAR BLUE fluorescence) came to 99%.
